B1: Endogenous FOXO3 (293T cells) (other, UniProt O43524 1-673, looked up)
chain: MAEAPASPAPLSPLEVELDPEFEPQSRPRSCTWPLQRPELQASPAKPSGETAADSMIPEEEDDEDDEDGGGRAGSAMAIGGGGGSGTLGSGLLLEDSARVLAPGGQDPGSGPATAAGGLSGGTQALLQPQQPLPPPQPGAAGGSGQPRKCSSRRNAWGNLSYADLITRAIESSPDKRLTLSQIYEWMVRCVPYFKDKGDSNSSAGWKNSIRHNLSLHSRFMRVQNEGTGKSSWWIINPDGGKSGKAPRRRAVSMDNSNKYTKSRGRAAKKKAALQTAPESADDSPSQLSKWPGSPTSRSSDELDAWTDFRSRTNSNASTVSGRLSPIMASTELDEVQDDDAPLSPMLYSSSASLSPSVSKPCTVELPRLTDMAGTMNLNDGLTENLMDDLLDNITLPPSQPSPTGGLMQRSSSFPYTTKGSGLGSPTSSFNSTVFGPSSLNSLRQSPMQTIQENKPATFSSMSHYGNQTLQDLLTSDSLSHSDVMMTQSDPLMSQASTAVSAQNSRRNVMLRNDPMMSFAAQPNQGSLVNQNLLHHQHQTQGALGGSRALSNSVSNMGLSESSSLGSAKHQQQSPVSQSMQTLSDSLSGSSLYSTSANLPVMGHEKFPSDLDLDMFNGSLECDMESIIRSELMDADGLDFNFDSLISTQNVVGLNVGNFTGAKQASSQSWVPG

How the values were obtained:
[1] = molecular target: B1; assay: co-IP from 293T lysates with rabbit FOXO3 antibody, MST1 immunoblot
[2] = molecular target: T1, protein kinase MLK3 (endogenous, 293T cells) (UniProt Q16584 1-847); assay: co-IP from 293T lysates with rabbit FOXO3 antibody, MLK3 immunoblot
T1 construct: Negative control in the co-immunoprecipitation of endogenous FOXO3
T1 sequence (Q16584 whole entry): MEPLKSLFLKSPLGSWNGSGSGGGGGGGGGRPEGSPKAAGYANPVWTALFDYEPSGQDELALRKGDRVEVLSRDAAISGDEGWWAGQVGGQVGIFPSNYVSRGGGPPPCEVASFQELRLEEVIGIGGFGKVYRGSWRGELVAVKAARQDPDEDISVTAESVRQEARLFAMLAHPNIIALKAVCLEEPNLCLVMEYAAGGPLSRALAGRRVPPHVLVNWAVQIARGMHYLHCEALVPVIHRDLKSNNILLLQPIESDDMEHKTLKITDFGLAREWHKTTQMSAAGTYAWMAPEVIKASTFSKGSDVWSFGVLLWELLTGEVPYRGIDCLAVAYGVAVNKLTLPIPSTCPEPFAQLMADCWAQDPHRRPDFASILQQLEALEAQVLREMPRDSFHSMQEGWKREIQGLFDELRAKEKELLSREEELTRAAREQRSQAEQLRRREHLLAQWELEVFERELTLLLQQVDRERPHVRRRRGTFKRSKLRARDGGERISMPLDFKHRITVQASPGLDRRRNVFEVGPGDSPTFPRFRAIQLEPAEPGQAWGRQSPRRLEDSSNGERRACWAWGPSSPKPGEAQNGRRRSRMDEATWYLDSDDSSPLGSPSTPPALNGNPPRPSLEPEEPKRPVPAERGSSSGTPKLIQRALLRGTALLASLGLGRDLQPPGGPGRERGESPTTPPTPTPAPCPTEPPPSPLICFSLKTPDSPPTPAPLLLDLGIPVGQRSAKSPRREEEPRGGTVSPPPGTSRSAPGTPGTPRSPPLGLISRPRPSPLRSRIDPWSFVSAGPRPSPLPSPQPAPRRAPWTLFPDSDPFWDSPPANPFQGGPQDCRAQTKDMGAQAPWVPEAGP

Binder	binding result [1]	binding result [2]
Endogenous MST1 (293T cells) (enzyme, UniProt Q13043 1-487, looked up) METVQLRNPPRRQLKKLDEDSLTKQPEEVFDVLEKLGEGSYGSVYKAIHKETGQIVAIKQVPVESDLQEIIKEISIMQQCDSPHVVKYYGSYFKNTDLWIVMEYCGAGSVSDIIRLRNKTLTEDEIATILQSTLKGLEYLHFMRKIHRDIKAGNILLNTEGHAKLADFGVAGQLTDTMAKRNTVIGTPFWMAPEVIQEIGYNCVADIWSLGITAIEMAEGKPPYADIHPMRAIFMIPTNPPPTFRKPELWSDNFTDFVKQCLVKSPEQRATATQLLQHPFVRSAKGVSILRDLINEAMDVKLKRQESQQREVDQDDEENSEEDEMDSGTMVRAVGDEMGTVRVASTMTDGANTMIEHDDTLPSQLGTMVINAEDEEEEGTMKRRDETMQPAKPSFLEYFEQKEKENQINSFGKSVPGPLKNSSDWKIPQDGDYEFLKSWTVEDLQKRLLALDPMMEQEIEEIRQKYQSKRQPILDAIEAKKRRQQNF	binds	
B1		no binding

From patent publication US20080242608A1 (published 2008)
